The results in this text go back to patent US20120190819A1 (MEDICAL RESEARCH COUNCIL, published 2012).

Numbering of substitutions follows the chain as printed.

The target of data set [1] is T1, SH3 domain of yeast Sho1p (yeast two-hybrid bait, pEG202-Sho1-SH3) (yeast, UniProt P40073 300-367, limits assumed).
T1 construct: domain: SH3 domain; also called Sho1p SH3 domain
Description: yeast two-hybrid screen. From the text: (§1) Degenerate oligonucleotide cassettes were made by annealing and amplifying P20 and P21 encoding a biased library designed around the Pbs2p proline rich sequence ([…]) (SEQ ID NO: 33) that interacts with the SH3 domain of Sho1p. Translation of the cassette gives X(L/V/P/A)N(K/R)PLP(P/S/A)LP(L/V/P/A)X (SEQ ID NO: 34). At the DNA level, this oligonucleotide should give rise to a library with a theoretical complexity of 98,304. The cassette was ligated into STM pJG4-5, and grown up in XL10 Gold cells (Stratagene). The midi-prepped (Qiagen) DNA was used to create a yeast library of 6×10⁴ cells in EGY48, theoretically covering 60% of the sequences encoded by the library. These cells were mated with EGY42 cells carrying pEG202-Sho1-SH3, made as described above. Interactors were selected on -UHTL/X-Gal/Gal-Raff plates for 4 days, picked and the plasmids rescued into E. coli KC8 cells. The plasmids were transformed back into EGY48 to confirm interaction with the SH3 domain of Sho1p in EGY42 using an interaction-mating matrix.

The target in data set [2] is T1, SH3 domain of yeast Sho1p (yeast …). The data set is described as follows: yeast two-hybrid screen, confirmed by interaction mating.
Description: as §1

For data set [3] the target is unchanged. Description: yeast two-hybrid, Sho1-SH3 binding. From the text:
We noted that other peptides containing a leucine at −5 (such as Apt03 and 05) were not inhibitory. Unlike AptA, these two peptide aptamers are constrained. To test the idea that constraint prevents the PPII helix of peptide aptamers such as Apt03 and 05 from productive interaction with Sho1 SH3, we replaced the C-terminal stop codon of AptA with codons encoding each amino acid residue in turn to make AptA a full-length peptide aptamer constrained in STM. After re-constraint, only one of the seven amino acid residues P, V, C, D, H, F and W at +5 allow binding to Sho1 SH3 in the context of a constrained protein (Table IV). This contrasts with the findings of Feng et al [Feng S, Chen J K, Yu H, Simon J A, Schreiber S L. 1994. Two binding orientations for peptides to the Src SH3 domain: development of a general model for SH3-ligand interactions. Science. 266: 1241-7] and Rickles et al [Rickles R J, Botfield M C, Zhou X M, Henry P A, Brugge J S, Zoller M J. 1995. Phage display selection of ligand residues important for Src homology 3 domain binding specificity. Proc Natl Acad Sci USA. […] In addition, none of the constrained AptA variants show the ability to inhibit Pbs2-Hog1 activation (Table IV). […] They further indicate that in the context of STM, the presence of one of the 7 permissive residues at position +5 either allows the formation of a left handed type II polyproline helix or allows interaction at a surface on Sho1 distinct from the SH3 domain.

Data set [4] deals with the molecule itself. The data set is described as follows: gel filtration (self-association, domain-swapped dimer). On the procedure: To confirm that the engineered scaffold was correctly folded, we used gel filtration chromatography to ask whether we could detect any denatured or dimerized STM in its native form. Recombinant STM AU1 migrated close to its predicted size and similarly to wild type SteA (FIG. 3, panel A). When the protein preparations were heated to 75° C. before gel filtration, a proportion of SteA migrated as a dimer. […] The CD spectra of native SteA at 25° C. and 50° C. and native STM AU1 at 25° C. and 50° C.
On the technique in general: In gel filtration, larger molecules generally elute earlier.

In data set [5] the target is T1, SH3 domain of yeast Sho1p (yeast …). Description: yeast two-hybrid interaction mating. An excerpt:
The yeast genome encodes 25 proteins that between them comprise 28 SH3 domains. Each domain, or combination of domains, was cloned as a yeast two hybrid bait, and tested by interaction mating for its ability to recognise AptA. […] The SH3 domain of Bud14 is a self-activating bait, giving rise to a blue colour even when mated to an empty prey plasmid. […] AptA* is the mutant version of AptA where the two proline residues of the PxxP motif have been changed to alanines (PP/AA). STM is the empty scaffold.

T1 sequence (P40073 300-367 limits assumed): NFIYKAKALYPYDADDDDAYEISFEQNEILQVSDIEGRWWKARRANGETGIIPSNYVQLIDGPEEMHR

B1: Apt40 (peptide aptamer 040 in truncated STM) (designed binder)
chain: MIPWGLSEAKPATPEIQEIVDKVKPQLEEKTNETYGKLEAVQYKTQVDAGTNYYIKVRAGDNKYMHLKVFNGPVENKPLPALPAVGP
notes: Truncated by a frame-shift and an out-of-frame stop codon
On to B1, for which the binding result in data set [1] is recorded as “binds”.

B2: Apt94 (peptide aptamer 094 in truncated STM) (designed binder)
chain: MIPWGLSEAKPATPEIQEIVDKVKPQLEEKTNETYGKLEAVQYKTQVDAGTNYYIKVRAGDNKYMHLKVFNGPANKPLPALPALGSAVE
notes: as for B1
In the case of B2, in data set [1], the binding result is listed as “binds”.

B3: STM peptide aptamer 03 (designed binder)
chain: MIPWGLSEAKPATPEIQEIVDKVKPQLEEKTNETYGKLEAVQYKTQVDAGTNYYIKVRAGDNKYMHLKVFNGPDLNKPLPALPVHGPPGQNEDLVLTGYQVDKNKDDELTGF
notes: Insert (with its GP ends) constrained in STM; also called Apt03
Take B3: the binding result in data set [2] is “binds”.

B4: re-constrained AptA, RLNKPLPSLPVR in full-length STM (designed binder)
chain: B3 chain with D74R, A81S, H85R
notes: Stop codon of AptA replaced, making a full-length aptamer constrained in STM
Regarding B4, the binding result in data set [3] is “no binding”.

B5: re-constrained AptA, RLNKPLPSLPVV in full-length STM (designed binder)
chain: B3 chain with D74R, A81S, H85V
notes: as for B4
Consider B5, for which, in data set [3], the binding result is reported as “binds”.

B6: re-constrained AptA, RLNKPLPSLPVW in full-length STM (designed binder)
chain: B3 chain with D74R, A81S, H85W
notes: as for B4
Regarding B6, the binding result in data set [3] is listed as “binds”.

B7: re-constrained AptA, RLNKPLPSLPVY in full-length STM (designed binder)
chain: B3 chain with D74R, A81S, H85Y
notes: as for B4
Regarding B7, the binding result in data set [3] was “no binding”.

B8: re-constrained AptA, RLNKPLPSLPVS in full-length STM (designed binder)
chain: B3 chain with D74R, A81S, H85S
notes: as for B4
Consider B8, for which the binding result in data set [3] is listed as “no binding”.

B9: re-constrained AptA, RLNKPLPSLPVT in full-length STM (designed binder)
chain: B3 chain with D74R, A81S, H85T
notes: as for B4
For the molecule B9, the binding result in data set [3] was “no binding”.

B10: STM peptide aptamer 05 (designed binder)
chain: B3 chain with D74N, H85L
notes: Insert (with its GP ends) constrained in STM; also called Apt05; Pep05
On to B10, for which the binding result in data set [2] is “binds”.

B11: STM peptide aptamer 01 (designed binder)
chain: MIPWGLSEAKPATPEIQEIVDKVKPQLEEKTNETYGKLEAVQYKTQVDAGTNYYIKVRAGDNKYMHLKVFNGPVPNKPLPALPVIGPGVNKPLPALPAHGPIRNKPLPSLPASGPPGQNEDLVLTGYQVDKNKDDELTGF
notes: Insert (with its GP ends) constrained in STM
Turning to B11, the binding result in data set [2] is reported as “binds”.

B12: wild type Stefin A (human, recombinant) (other)
chain: MIPGGLSEAKPATPEIQEIVDKVKPQLEEKTNETYGKLEAVQYKTQVVAGTNYYIKVRAGDNKYMHLKVFKSLPGQNEDLVLTGYQVDKNKDDELTGF
notes: Expressed in E. coli from pET30a(+) with a hexa-histidine tag; also called SteA; Cystatin A
Take B12: in data set [4], the binding result was “binds”.

B13: Apt34 (peptide aptamer 034 in truncated STM) (designed binder)
chain: MIPWGLSEAKPATPEIQEIVDKVKPQLEEKTNETYGKLEAVQYKTQVDAGTNYYIKVRAGDNKYMHLKVFNGPSVNKPLPSLPSLPVYGP
notes: as for B1
Take B13: the binding result in data set [1] is “binds”.

B14: STM peptide aptamer 09 (designed binder)
chain: MIPWGLSEAKPATPEIQEIVDKVKPQLEEKTNETYGKLEAVQYKTQVDAGTNYYIKVRAGDNKYMHLKVFNGPMLNKPLPSLPVGGPGLNKPLPSLPAAGPPGQNEDLVLTGYQVDKNKDDELTGF
notes: as for B11
On to B14, for which, in data set [2], the binding result is recorded as “binds”.

B15: STM peptide aptamer 07 (designed binder)
chain: B14 chain with M74P, L75N, N76V, S81A, V84L, G85M, G88L, S95A, A98L, A99D
notes: as for B11
B15: in data set [2], the binding result is listed as “binds”.

B16: STM peptide aptamer 13 (designed binder)
chain: B14 chain with M74Y, V84L, G85C, G88S, L89V, K91R, S95A, A98D, A99V
notes: as for B11
Regarding B16, the binding result in data set [2] is reported as “binds”.

B17: STM peptide aptamer 04 (designed binder)
chain: B14 chain with M74Y, K77R, V84A, G85Y, G88W, L89V, K91R, A98L, A99S
notes: as for B11
For B17, the binding result in data set [2] is on record as “binds”.

B18: STM peptide aptamer 11 (designed binder)
chain: B14 chain with M74F, L75P, S81A, V84L, G85T, G88V, K91R, S95P, A98R, A99N
notes: as for B11
With B18, in data set [2], the binding result is recorded as “binds”.

B19: STM peptide aptamer 10 (designed binder)
chain: B14 chain with M74I, S81A, V84L, G85R, G88D, L89P, K91R, S95A, A98V, A99T
notes: as for B11
On to B19, for which the binding result in data set [2] was “binds”.

B20: STM peptide aptamer 17 (designed binder)
chain: B14 chain with M74E, L75P, S81A, V84L, G85T, G88V, K91R, S95P, A98R, A99N
notes: as for B11
Turning to B20, the binding result in data set [2] is recorded as “binds”.

B21: STM peptide aptamer 06 (designed binder)
chain: B14 chain with M74V, L75V, G85K, G88D, L89V, A99V
notes: as for B11
For the molecule B21, the binding result in data set [2] was “binds”.

B22: STM peptide aptamer 02 (designed binder)
chain: B14 chain with M74V, G85M, G88T, L89P, S95P
notes: as for B11
Turning to B22, the binding result in data set [2] is given as “binds”.

B23: STM peptide aptamer 20 (designed binder)
chain: B14 chain with M74R, L75M, V84L, G88A, L89M, S95A, A98L, A99Q
notes: as for B11
As to B23, in data set [2], the binding result is on record as “binds”.

B24: STM peptide aptamer 08 (designed binder)
chain: B14 chain with M74D, L75P, K77R, G85T, G88Y, S95A, A98V, A99S
notes: as for B11
Take B24: the binding result in data set [2] is “binds”.

B25: control peptide aptamer RLNKPLPSLPVG* (truncated STM) (designed binder)
chain: MIPWGLSEAKPATPEIQEIVDKVKPQLEEKTNETYGKLEAVQYKTQVDAGTNYYIKVRAGDNKYMHLKVFNGPRLNKPLPSLPVG
notes: Ends at a stop codon after the added G (unconstrained control)
B25: the binding result in data set [3] is recorded as “binds”.

B26: AptA (peptide aptamer A in truncated STM) (designed binder)
chain: MIPWGLSEAKPATPEIQEIVDKVKPQLEEKTNETYGKLEAVQYKTQVDAGTNYYIKVRAGDNKYMHLKVFNGPRLNKPLPSLPV
notes: Scaffold ends at the in-frame stop codon after the 11mer (unconstrained C-terminal peptide); also called PepA; pepA
Turning to B26, in data set [1], the binding result was “binds”.

B27: Apt32 (peptide aptamer 032 in truncated STM) (designed binder)
chain: B26 chain with R74L, L75P, V84L
notes: Scaffold ends at the in-frame stop codon after the 11mer; also called Pep32
B27: the binding result in data set [1] is “binds”.

B28: AptA* (AptA with the two prolines of the PxxP motif changed to alanines) (designed binder)
chain: B26 chain with P80A, P83A
notes: also called AptA PP/AA; AxxA mutation of AptA
As for B28, the binding result in data set [5] was “no binding”.

B29: Apt124 (peptide aptamer 124 in truncated STM) (designed binder)
chain: B26 chain with L75G, S81A, V84L
notes: Scaffold ends at the in-frame stop codon after the 11mer
Regarding B29, the binding result in data set [1] was “binds”.
